Experimental data: publication PMC7885793 (Biochemistry, 2019)

Molecular target: T1, PLCβ3-Δ892 (residues 10–892) (Homo sapiens, UniProt Q01970 10-892)
T1 sequence (looked up): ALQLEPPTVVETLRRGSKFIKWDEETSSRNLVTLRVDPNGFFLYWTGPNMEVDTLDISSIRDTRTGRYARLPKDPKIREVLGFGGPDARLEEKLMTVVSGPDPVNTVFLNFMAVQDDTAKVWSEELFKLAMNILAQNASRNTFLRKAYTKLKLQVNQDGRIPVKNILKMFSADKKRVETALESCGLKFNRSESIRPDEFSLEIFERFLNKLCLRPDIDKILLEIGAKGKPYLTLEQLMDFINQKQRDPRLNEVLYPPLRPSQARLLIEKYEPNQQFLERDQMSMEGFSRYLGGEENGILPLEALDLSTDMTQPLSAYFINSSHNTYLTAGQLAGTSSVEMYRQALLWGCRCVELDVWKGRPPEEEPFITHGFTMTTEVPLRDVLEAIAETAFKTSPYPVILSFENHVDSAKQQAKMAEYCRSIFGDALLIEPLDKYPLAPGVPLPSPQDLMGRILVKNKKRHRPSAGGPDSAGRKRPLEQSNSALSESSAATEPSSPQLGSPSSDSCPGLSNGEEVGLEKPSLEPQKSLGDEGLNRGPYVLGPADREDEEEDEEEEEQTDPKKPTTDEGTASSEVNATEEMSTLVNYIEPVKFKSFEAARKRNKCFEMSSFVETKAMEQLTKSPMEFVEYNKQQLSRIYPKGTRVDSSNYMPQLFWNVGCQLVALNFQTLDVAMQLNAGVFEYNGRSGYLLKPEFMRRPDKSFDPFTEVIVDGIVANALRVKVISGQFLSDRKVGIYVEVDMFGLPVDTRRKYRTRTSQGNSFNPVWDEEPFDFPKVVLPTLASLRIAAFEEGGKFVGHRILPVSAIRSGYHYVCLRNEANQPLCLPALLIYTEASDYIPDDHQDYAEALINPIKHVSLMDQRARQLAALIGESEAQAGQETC
Assay: cell-based or functional assay

B1: Activated Gαq (Gαq·GDP-ALF4^−) (natural protein, murine, UniProt P21279 7-359, looked up)
chain: MACCLSEEAKEARRINDEIERQLRRDKRDARRELKLLLLGTGESGKSTFIKQMRIIHGSGYSDEDKRGFTKLVYQNIFTAMQAMIRAMDTLKIPYKYEHNKAHAQLVREVDVEKVSAFENPYVDAIKSLWNDPGIQECYDRRREYQLSDSTKYYLNDLDRVADPSYLPTQQDVLRVRVPTTGIIEYPFDLQSVIFRMVDVGGQRSERRKWIHCFENVTSIMFLVALSEYDQVLVESDNENRMEESKALFRTIITYPWFQNSSVILFLNKKDLLEEKIMYSHLVDYFPEYDGPQRDAQAAREFILKMFVDLNPDSDKIIYSHFTCATDTENIRFVFAAVKDTILQLNLKEYNLV
Q: For B1, which “x-fold maximum activity over basal (complex against the PLCβ3 variant alone)” value is on record?
A: The value was 22 x-fold.
